Laboratory results: article PMC7875332

Target: ACE2 receptor on Vero E6 cells (African green monkey (endogenous in Vero E6))
Experiment: flow cytometry on cells; HIS-tagged S protein incubated with 1.5 × 10^5 Vero E6 cells (ACE2+), 37°C for 1 hour, in 1% BSA in PBS with 0.02% sodium azide; detected with FITC-labeled anti-HIS Ab

## recombinant SARS-CoV-2 S protein, fused with a HIS tag at the C terminus (from UniProt P0DTC2) (natural protein)
  concentration at binding saturation: 200 nM
